Source: the nanobody polyreactivity screen of Harvey et al. (2022)

Assay: yeast display, Sf9 membrane polyspecificity reagent, FACS + sequencing; frameworks hold sequencing errors
How it was run: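 Nanobodies came from a synthetic yeast display library in Saccharomyces cerevisiae BJ5465, induced with galactose for 36–48 hours and stained for 1 hour at 4 °C with 10% biotinylated, detergent-solubilized Sf9 membrane reagent. Cells were enriched on streptavidin microbeads and then FACS-sorted, with low and high (top ~1%) gates set on anti-HA fluorescence for expression and streptavidin fluorescence for reagent binding. Each polyreactivity label reflects the gate a clone came from. Genes were amplified by colony PCR, sequenced by MiSeq 2 × 250 and filtered by CDR length.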

Sequence | polyreactivity (PSR sort gate)
QVQLVESGGGLVQAGGSLRLSCAASGSTFLVYAMGWYRQAPGKERELVARINWRGSSTYADSVKGRFTISRDNAKNTVYLQMNSLKPEDTAVYYCNADSYRYYHPTYIYDYWGQGTQVTVSS | low polyreactivity
QDQLVESGGGLVQAGGSLRLSCAASGRTLVHYGMGRYRQAPRKERELVAVITSGGSTYYADSVKARFTISRDNAKNTVYLQMNSLKPEDTAVYYCAAYKERFYEEYGYWGQGTQLTVSS | low polyreactivity
QVQLVESGGGLVQAGGSLRLSCAASGFTFRGNAMGWYRQAPGKERELVAAITSSDDSTYYADSVKGRFTISRDNAKNTVYLQMNSLKPEDTAVYYCAAVANGYWTYEYWGQGTQVTVSS | low polyreactivity
QVQLVESGGGLVQAGGSLRLSCAASGNILIGNVMGWYRQAPGKERELVAAITSGGDTYYADSVKGRFTISRDNAKNTVYLQMNSLKPEDTAVYYCNAYYYFWGQGTQVTVSS | low polyreactivity
QVQLVESGGGLVQAGGSLRLSCAASGSIFQYYPMGWYRQAPGKERELVAAINSGGRTNYADSVKGRFTISRDNAKNTVYLQMNSLKPEDTAVYYCAKRLSTRASFGEEDSWGQGTQVTVSS | low polyreactivity
QVQLVESGGGLVQAGGRLRLSCAPSGSTFPPYAMGWYRQAPGKERELVADITRRGASTYYADSVKGRFTISRDNAKNTVYLQMNSLKPEDTAVYYCAARFYYQYYSGFDYWGQGTQVTVST | high polyreactivity
QVQLVESGGGLVQAGGSLRLSCAASGSIFQDYAMGWYRQAPGKERELVAAITSDGSTYYADSVKGRFTISRDNAKNTVYLQMNSLKPEDTAVYYCATDKLYGRTVRMDYWGQGTQVTVSS | low polyreactivity
QVQLVESGGGLVQAGGSLRISCAASGSIFGWYAMGWYRPAPGKEREFVATISRRGGRTYYADSVKGRFTISRDNAKNTVYLQMNSLKQEDTAVYYCAANSVYKEDYWGQVTQVTVSS | high polyreactivity
QVQLVESGGGLVQAGGSLRLSCAASGRILVRNAMGRYRQAPGKERELVAVIRWSGGRTSYADSVKGRFTISRDNAKNTVYLQMNSLKPEDTAVYYCNKGGSYPTSNYKSYWVGVDYWGQGTQVTVSS | low polyreactivity
QVHLVESGGGLVQAGGSLRLSCAASGRTFYRNAMGWYRQAPGKERELVAAIRTRTGSTYYADSVKGRFTISRDNAKNTVYLQMNSLKPEDTAGYYCAALAWYPYYASWPVESDYWGQGTQVTVSS | high polyreactivity
QVQLVESGGGLVQAGGSLRLSCAASGRIFLYNAMAWYRQAPGKERELVASISSGDTTNYADSVKGRFTISRDNAKNTVYLQMNSLKPEDTAVYYCNAEYGTPYSWFDYWGQGTQVTVSS | low polyreactivity
QVQLVESGGGLVQAGGSLRLSCAASGGIFGYNAMGWYRQAPGKERELVAAISRGTTTNYADSVKGRFTISRDNAKNTVYLQMNSLKPEDTAVYYCAADQPSKRYYYWGQGTQVTVSS | low polyreactivity
QVQLVESGGGLVQAGGSLRLSCAASGRIIEHNAMGWYRQAPGKERELVAAINYSGGSTYYADSVKGRFTISRDNAKNTVYLQMNSLKPEDTAVYYCATRTGHWGQGTQVTVSS | low polyreactivity
QVQLVDSGGGLVQAGGSLRLSCAASGRNFNEYAMGWSRPAPGKERELVAAISSSGDSTYYADSVKGRFTISRDNAKNTVYLQMNSLKPEDTAVYYGAAQVVVWYPYVYFPGSDYWGQGTQVTVSS | low polyreactivity
QVKLVESGGGLVQAGGSLRLSCADSGLIFYKYAMGWYRKAPGKERELVAAITSGGSTNYADSVKGRFTISRDNAKNTVYLQMNSLKPEDTAVYYCNADYNHYLVVRWWYPPVDYWGQGTQVTVSS | low polyreactivity
QVQLVESGGGLVQAGGSLRLSCAASGLIFRTYAMGWYRQAPGKERELVAAISSSGGSTYYADSVKGRFTISRDNAKNTVYLQMNSLKPEDTAVYYCNVGSRRRRYLDRYEYWGQGTQVTVSS | high polyreactivity

Sequence | polyreactivity (PSR sort gate)
QVQLVESGGGLVQAGGSLRLSCAASGIIFNYYTMGWYRQAPGKERELVAVISWRGGSTFYADSVKGRFTISRDNAKNTVYLQMNSLKPEDTAVYYCAAVLFGDYPPVYYPTEYDYWGQGTQVTVSS | low polyreactivity
QDQLVESGGGLVQAGGSLRLTCAASGFIFYHYAMGWYRQAPGKERDLVAAINWSGGSTYYADSVKGRFTISRDNAKKTDYLQMNSLKPEDTAVYYCAAYSTAWYWPGKFDYWGQGTQVTVSS | high polyreactivity
QVQLVESGGGLVQAGGSLRLSCAASGYTFRFNAMGWYRQAPGKEREFVAAIDFGGAGTYYADSVKGRFTISRDNATNTVYVQMNSLKPEDTAVYYCNARDGVTTEFDYWGQGTQVTVSS | low polyreactivity
QVQLVESGGRLVQAGGSLRLSCAASGSIFRSYAMGWYRQAPGKERELVATISSSTGSTYYADSVKGRFTISRDNAKNTVYLQRNSLKPEDTAVYYCNAQRRWSIYGYFYYWGQGTQVTVSS | high polyreactivity
QVQLVESGGGLVQAGGSLRLSCAASGFTFEEYAMGWYRQAPGKERELVAAIDYTVGSTYYADSVKGRFTISRDNAKNTVYLQMNSLKPEDTAVYYCNVDLSYSFNSAYGYWGQGTQVTVSS | low polyreactivity
QVQLVESGGGLVHAGGSLRLSCAASGFIFYYNAMGWYRHAPGKERELVAGISRSAGSTYYADSVKGRFTISRDNAKNSVYLQMNSLKPEDTAVDYCAARYLSYITGTSYYWGQVTQVTVSS | low polyreactivity
QVQLVESGGGLVQAGVSLSLSCAGSGFIFFQYPMGWYRDAPGKDRELVAAISGSGVTTYYADSVKGRFTISRDYAKKTVYLQMNSLKPEDTAVYYCAALHYRIRRTGMDYWGQGTQVTVSS | low polyreactivity
QVQLVESGGGLVQAGGSLRLSCAASGRIFRGNTMGWYRQAPGKERELVAAITRGGSTSYADSVKGRFTISRDNAKNTVYLQMNSLKPEDTAVYYCATRTHGEGTRRDSWGQGTQVTVSS | low polyreactivity
QVQLVESGGGLVQAGGSLRLSCAASGSIFLIYAMGWYRQAPGKERELVAAIDWGGGANTYYADSVKGRFTISRDNAKNTVYLQMNSLKPEDTAVYYCAVDSYTSGYEYWGQGTQVTVSS | low polyreactivity
QVQLVESGGGLVQAGGSLRLSCAASGYIFDYYDMGWYRQAPGKERELVAAINGSGGDTYYADSVKGRFTISRDNANNTVYLEMNSLKPEDTAVYYCAADLVYYSGWGYAFNYWGQGTQVNVSS | high polyreactivity
QVQLVESGGGLVQAGGSLRLICAASGRTFPYNAMGWSRQAPGKERELVARITSGGRTYYADSVKGRFTISRDNAKNTVYLQMNSLKPEDPAVYYCAAETLRYYWKSYDWGQGTQVTVSA | high polyreactivity
QVQLVESGGGLVQAGGSLRLSCAASGRIFGGYTMGWYRQAPGKERELVASINSGGSTAYADSVKGRFTISRDNAKNTVYLQMNSLKPEDTAVYYCAKRYAQTYSVSRYYYWGQGTQVTVSS | high polyreactivity
QVQLVESGGGLVQAGGSHRLSCAASGIIFRFYAMGCYRQAPGTERELVAAITSSGGSTYYADSVKGRFTISRDNAKNTVYLQMNSLNPEDTAVYYCYARVFSQSHYYYWGQGTQVTLSS | high polyreactivity
QVHLVESGGGLVQAGGSLRLSCAASGRILSLYAMGWYRQAPGKERELVASINWSDGSTYYADSVKGRFTISRDNAKNTVYLQMNSLKPEDTAVYYCNVDVSSYVAGYDYWGQGTQVTVSS | low polyreactivity
QVQLVESGGGLVQAGGSLRLSCAASGITFYFYTMGWYRPAPGKERELVAAITSSGGTTYYADSVKGRFTISRDNAKNTVYLQMNSLKPEDTAVYYCAARRWYQSRRGGFDYWGQGTQVTVSS | high polyreactivity
QVHLVESGGGLVQAGGSLRLSCAASGSTFQTNAMGWSRQAPGKERELVAAISRTGGRSNYADSVKGRFTISRDNAKNTVYLQMHSLKPEDTAVYDCAAGVPKTGQAGYDYWGQGTQVTVSS | high polyreactivity
